The target in the assay is QTARK^MeSTGC (SEQ ID NO: 4), methylated H3K9 peptide ligand immobilized on the monolayer. The assay is described as follows: cell-based or functional assay.

Drawing on US20210223235A1, this text covers rate acceleration for the deacetylation reaction (SAMDI mass spectrometry) for one substance.

In the case of “Cbx1 fusion protein (Cbx1 chromodomain fused to KDAC8 through a short linker) (from UniProt P83916 20-73; Q9BY41 1-377)”, the rate acceleration for the deacetylation reaction (SAMDI mass spectrometry) came to 20 fold.
